Where a chain is given by its changes, count along the chain named.
T1: murine TNFα (mouse, UniProt P06804 80-235)
T1 construct: also called mTNFα; mouse TNFα
T1 sequence (looked up): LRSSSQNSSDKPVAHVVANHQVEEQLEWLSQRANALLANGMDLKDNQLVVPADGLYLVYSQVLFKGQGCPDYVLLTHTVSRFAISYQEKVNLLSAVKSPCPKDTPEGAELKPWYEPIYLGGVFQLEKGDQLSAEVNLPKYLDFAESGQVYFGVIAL

T2: wild-type IL-17RC (wtIL-17RC) (human, UniProt Q8NAC3 21-538, limits assumed)
T2 construct: also called IL-17RC wild type
T2 sequence (looked up): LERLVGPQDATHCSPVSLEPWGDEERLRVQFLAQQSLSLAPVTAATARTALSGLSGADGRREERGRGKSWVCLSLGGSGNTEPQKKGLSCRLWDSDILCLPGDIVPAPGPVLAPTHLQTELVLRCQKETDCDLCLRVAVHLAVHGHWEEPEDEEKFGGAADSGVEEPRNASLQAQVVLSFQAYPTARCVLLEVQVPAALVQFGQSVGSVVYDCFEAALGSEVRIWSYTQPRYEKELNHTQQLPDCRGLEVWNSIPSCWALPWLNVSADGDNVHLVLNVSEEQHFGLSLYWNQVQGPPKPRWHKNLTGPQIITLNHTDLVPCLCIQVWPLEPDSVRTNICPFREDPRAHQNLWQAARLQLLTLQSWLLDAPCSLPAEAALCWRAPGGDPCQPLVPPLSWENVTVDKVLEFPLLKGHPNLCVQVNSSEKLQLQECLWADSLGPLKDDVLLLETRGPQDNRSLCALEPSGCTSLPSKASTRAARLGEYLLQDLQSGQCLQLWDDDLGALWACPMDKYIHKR

B1: T1-T4-14 (Fc fusion)
chain: LRLLDHRAPVCSQPGLNCTVKNSDCLDDSWIHPRNLTPSSPKDLQIQLHFAHTQQGDLVPVAHIEWTLQTDASILYLEGAELSVLQLDTNERLCVRFEFLSKLRHHHRRWRFTFSHFVVDPGQEYEVTVHHLPKPIPDGDPNHQSKNFLVPDCEHPRMKVTTPCMSSALPWLNVSADGDNVHLVLNVSEEQHFGLSLYWNQVQGPPKPRWHKNLTGPQIITLNHTDLVPCLCIQVWPLEPDSVRTNICPFREDPRAHQNLWQAARLRLLTLQSWLLDAPCSLPAEAALCWRAPGGDPCQPLVPPLSWENVTVDKVLEFPLLKGHPNLCVQVNSSEKLQLQECLWADSLGPLKDDVLLLETRGPQDNRSLCALEPSGCTSLPSKASTRAARLGEYLLQDLQSGQCLQLWDDDLGALWACPMDKYIHKTGIEGRMDRNTGRGGEEKKKEKEKEEQEERETKTPECPSHTQPLGVFLFPPKPKDTLMISRTPEVTCVVVDVSQEDPEVQFNWYVDGVEVHNAKTKPREEQFNSTYRVVSVLTVLHQDWLNGKEYKCKVSNKGLPSSIEKTISKAKGQPREPQVYTLPPSQEEMTKNQVSLTCLVKGFYPSDIAVEWESNGQPENNYKTTPPVLDSDGSFFLYSRLTVDKSRWQEGNVFSCSVMHEALHNHYTQKSLSLSLGKGGGGSGGGGSGGGGSLELPAQVAFTPYAPEPGSTCRLREYYDQTAQMCCAKCPPGQHAKVFCTKTSDTVCDSCEDSTYTQLWNWVPECLSCSSRCSSDQVETQACTREQNRICTCRPGWYCALSKQEGCRLCAPLSKCRPGFGVARPGTETSDVVCKPCAPGTFSNTTSSTDICRPHQICSVVAIPGNASMDAVCTSTSPTRSMAPGAVHLPQPVSTRSQHTQPTPGPSTAPSTSILLPMGPSPPAEGSTGD
notes: also called T1c-Fc-T4g; IL-17RA/RC-Fc-TNFR2 (T1-T4-14)
B2: T1-T4-14 produced in pcDNA3.4 (Fc fusion)
chain: B1 chain
notes: Same named protein as T1-T4-14 but expressed from the pcDNA3.4 vector; also called IL-17RA/RC-Fc-TNFR2
B3: T1-T4-14+GT6 (glycan sialylated T1-T4-14) (Fc fusion)
chain: B1 chain
modifications: glycan sialylation (co-expressed with B4GALT6, fed with UMnG and ManNAc)
notes: Same polypeptide as T1-T4-14, with increased sialylation; also called T1-T4-14 produced in pcDNA3.4+GT6; glycan sialylated IL-17RA/RC-Fc-TNFR2
B4: IL-17RA/RC-Fc-mTNFR2 (T1-mT4-35) (Fc fusion)
chain: LRLLDHRAPVCSQPGLNCTVKNSDCLDDSWIHPRNLTPSSPKDLQIQLHFAHTQQGDLVPVAHIEWTLQTDASILYLEGAELSVLQLDTNERLCVRFEFLSKLRHHHRRWRFTFSHFVVDPGQEYEVTVHHLPKPIPDGDPNHQSKNFLVPDCEHPRMKVTTPCMSSALPWLNVSADGDNVHLVLNVSEEQHFGLSLYWNQVQGPPKPRWHKNLTGPQIITLNHTDLVPCLCIQVWPLEPDSVRTNICPFREDPRAHQNLWQAARLRLLTLQSWLLDAPCSLPAEAALCWRAPGGDPCQPLVPPLSWENVTVDKVLEFPLLKGHPNLCVQVNSSEKLQLQECLWADSLGPLKDDVLLLETRGPQDNRSLCALEPSGCTSLPSKASTRAARLGEYLLQDLQSGQCLQLWDDDLGALWACPMDKYIHKTGIEGRMDRNTGRGGEEKKKEKEKEEQEERETKTPECPSHTQPLGVFLFPPKPKDTLMISRTPEVTCVVVDVSQEDPEVQFNWYVDGVEVHNAKTKPREEQFNSTYRVVSVLTVLHQDWLNGKEYKCKVSNKGLPSSIEKTISKAKGQPREPQVYTLPPSQEEMTKNQVSLTCLVKGFYPSDIAVEWESNGQPENNYKTTPPVLDSDGSFFLYSRLTVDKSRWQEGNVFSCSVMHEALHNHYTQKSLSLSLGKGGGGSGGGGSGGGGSLEVPAQVVLTPYKPEPGYECQISQEYYDRKAQMCCAKCPPGQYVKHFCNKTSDTVCADCEASMYTQVWNQFRTCLSCSSSCTTDQVEIRACTKQQNRVCACEAGRYCALKTHSGSCRQCMRLSKCGPGFGVASSRAPNGNVLCKACAPGTFSDTTSSTDVCRPHRICSILAIPGNASTDAVCAPESPTLSAIPRTLYVSQPEPTRSQPLDQEPGPSQTPSILTSLGSTPIIEQSTKGG
notes: The hTNFR2 ECD is replaced by the mouse TNFR2 ECD; also called hT1-mT4-35; T1-T4-35
B5: T1-T4-06 (Fc fusion)
chain: B1 chain with P156A, A729S, P732S, S771G, S815R, S860N, G906E, I915F
notes: also called T1b-Fc-T4wt; IL-17RA/RC-Fc-TNFR2
B6: T1-T4-07 (Fc fusion)
chain: B1 chain with A729S, P732S, S771G, S815R, S860N, G906E, I915F
notes: also called T1c-Fc-T4wt; IL-17RA/RC-Fc-TNFR2
B7: T1-T4-13 (Fc fusion)
chain: B1 chain with S771G
notes: also called T1c-Fc-T4f; IL-17RA/RC-Fc-TNFR2
B8: T1-T4-31 (Fc fusion)
chain: B1 chain with M484Y, S486T, T488E
notes: also called T1c-Fca-T4g; IL-17RA/RC-Fc-TNFR2
B9: T1-T4-32 (Fc fusion)
chain: B1 chain with H665K, N666F
notes: also called T1c-Fcb-T4g; IL-17RA/RC-Fc-TNFR2
B10: human IL-17F (IL-17FF homodimer) (ligand, UniProt Q96PD4 31-163, looked up)
chain: RKIPKVGHTFFQKPESCPPVPGGSMKLDIGIINENQRVSMSRNIESRSTSPWNYTVTWDPNRYPSEVVQAQCRNLGCINAQGKEDISMNSVPIQQETLVVRRKHQGCSVSFQLEKVLVTVGCTCVTPVIHHVQ
notes: also called hIL-17F; hIL-17FF

Target: T3, human IL-17A (IL-17AA homodimer) (human, UniProt Q16552 20-155, limits assumed)
T3 construct: also called hIL-17A; hIL-17AA
T3 sequence (Q16552 20-155 limits assumed): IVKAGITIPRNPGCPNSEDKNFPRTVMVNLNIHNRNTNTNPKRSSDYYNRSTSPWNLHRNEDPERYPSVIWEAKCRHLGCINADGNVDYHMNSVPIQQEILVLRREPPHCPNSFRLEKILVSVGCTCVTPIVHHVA
Experiment: ELISA

B1 and B2 are within 1.5-fold of each other in EC50: 0.0752 µg/mL for the first, 0.0607 µg/mL for the second.

B3 was tested, and the EC50 was 0.0543 µg/mL.

Target: T4, human TNFα (human, UniProt P01375 77-233)
T4 construct: also called hTNFα
T4 sequence (P01375 77-233 limits assumed): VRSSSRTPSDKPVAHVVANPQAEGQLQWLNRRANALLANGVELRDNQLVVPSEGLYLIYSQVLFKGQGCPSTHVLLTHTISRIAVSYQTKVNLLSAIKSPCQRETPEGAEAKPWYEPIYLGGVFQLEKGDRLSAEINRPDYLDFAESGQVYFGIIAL
Experiment: ELISA

B1 and B2 are within 1.5-fold of each other in EC50: 0.068 µg/mL for the first, 0.0873 µg/mL for the second.

In the case of B3, the EC50 is reported as 0.0443 µg/mL.

Target: B10
Experiment: ELISA

Going from B1 to B2, the EC50 falls from 0.0702 µg/mL to 0.0455 µg/mL (1.5-fold).

B3 gave an EC50 of 0.0621 µg/mL.

Target: T3, human IL-17A (IL-17AA homodimer)
Experiment: ELISA as in Example 8, cytokine coated on plate

Work on B4 yielded an EC50 of 0.0803 µg/mL.

Target: T1, murine TNFα
Experiment: ELISA as in Example 8, cytokine coated on plate

Work on B4 yielded an EC50 of 0.071 µg/mL.

Target: B10
Experiment: ELISA as in Example 8, cytokine coated on plate

Binder B4 has an EC50 of 0.0907 µg/mL.

Target: T3, human IL-17A (IL-17AA homodimer)
Experiment: ELISA, cytokine coated on plate, binder titrated, HRP secondary antibody

B1 and B5 are within 1.5-fold of each other in EC50: 0.00924 µg/mL for the first, 0.0103 µg/mL for the second.

B6 and B7 are within 1.5-fold of each other in EC50: 0.00706 µg/mL for the first, 0.0092 µg/mL for the second.

Target: T4, human TNFα
Experiment: as above

First: B1
Second: B5
The EC50 of the first is 1.9-fold higher: 0.0438 µg/mL for the first, 0.0233 µg/mL for the second.

Compared with B6, B8 is 33-fold lower in EC50: 2.04 µg/mL for the first, 0.0627 µg/mL for the second.

With B9 the EC50 was 0.0406 µg/mL.

Target: B10
Experiment: as above

B1 and B6 are within 1.5-fold of each other in EC50: 0.13 µg/mL for the first, 0.183 µg/mL for the second.

Work on B8 yielded an EC50 of 0.0853 µg/mL.

Target: T3, human IL-17A (IL-17AA homodimer)
Experiment: cell-based or functional assay

B1 and B5 are within 1.5-fold of each other in “IC50 (ng/mL) of hIL-17A, SEAP reporter assay in HEK-Blue IL-17 cells” value (from here on “IC50 (ng/mL) of hIL-17A”): 20.9 ng/mL for the first, 24.7 ng/mL for the second.

First: B6
Second: B8
The “IC50 (ng/mL) of hIL-17A” value of the first is 1.6-fold higher: 24.4 ng/mL for the first, 15.3 ng/mL for the second.

B9 and B7 are within 1.5-fold of each other in “IC50 (ng/mL) of hIL-17A” value: 20.5 ng/mL for the first, 26.9 ng/mL for the second.

Target: T4, human TNFα
Experiment: cell-based or functional assay

Compared with B1, B5 is 17-fold higher in “IC50 (ng/mL) of hTNFα, SEAP reporter assay in HEK-Blue TNFα cells” value: 14.9 ng/mL for the first, 249 ng/mL for the second.

Compared with B6, B7 is 2.6-fold lower in “IC50 (ng/mL) of hTNFα, SEAP reporter assay in HEK-Blue TNFα cells” value: 354 ng/mL for the first, 138 ng/mL for the second.

Target: B10
Experiment: cell-based or functional assay

Going from B1 to B5, the “IC50 (ng/mL) of hIL-17F, SEAP reporter assay in HEK-Blue IL-17 cells” value (from here on “IC50 (ng/mL) of hIL-17F”) rises from 1150 ng/mL to 2230 ng/mL (1.9-fold).

Going from B6 to B8, the “IC50 (ng/mL) of hIL-17F” value falls from 2740 ng/mL to 1240 ng/mL (2.2-fold).

For B9, the “IC50 (ng/mL) of hIL-17F” value was 1260 ng/mL.

Target: T2, wild-type IL-17RC (wtIL-17RC)
Experiment: binding affinity analysis of Table 12 (Octet BLI as described in Example 5)

B10 was tested, and the Kd was 4 nM.

From EP4682164A1 (Curogen Technology Co., Ltd., dated 2026)
